Drawing on patent US12679878B2, “CRF2 receptor agonists and their use in therapy” (SANOFI, priority 2020, dated 2026), this text covers EC50 [nM], 0% HSA and EC50 [nM], 0.1% HSA for seven molecules.

Starred links: 1 amine or outer side, 2 acyl side, 3 side chain; linkers in the order of their positions; H or OH if unused. Non-standard residues stand in square brackets, D forms with d. Groups on a side chain read outwards from the residue. No end group written: not given here. *: point of attachment. C18 diacid = O=C(O)CCCCCCCCCCCCCCCCC(=O)*; γGlu = O=C(O)[C@H](CCC(=O)[*:2])N[*:1]; Palmitoyl = CCCCCCCCCCCCCCCC(=O)*; AEEA = NCCOCCOCC(=O)O; Aib = CC(C)(N)C(=O)O

The target of the assay is human corticotropin-releasing factor 2α (CRF2 α receptor) (human), Q13324. Description: cell-based or functional assay.
Chain of human corticotropin-releasing factor 2α (CRF2 α receptor) (human), Q13324 (Q13324 20-411): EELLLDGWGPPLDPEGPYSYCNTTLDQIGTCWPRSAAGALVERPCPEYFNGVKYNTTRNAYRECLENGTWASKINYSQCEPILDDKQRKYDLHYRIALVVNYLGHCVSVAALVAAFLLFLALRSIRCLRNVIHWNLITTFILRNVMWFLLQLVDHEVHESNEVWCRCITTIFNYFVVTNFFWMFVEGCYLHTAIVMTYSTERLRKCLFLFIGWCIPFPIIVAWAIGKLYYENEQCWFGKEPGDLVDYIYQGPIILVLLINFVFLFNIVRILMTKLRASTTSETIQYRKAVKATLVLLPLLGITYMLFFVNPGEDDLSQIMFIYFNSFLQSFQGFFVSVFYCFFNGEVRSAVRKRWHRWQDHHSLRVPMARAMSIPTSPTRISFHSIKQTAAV

B1: SEQ ID NO: 46 (peptide)
peptide: IVLSLDVPIKLK([AEEA-AEEA-γGlu-C18 diacid])QILLEQAKQK[Aib]LRAQAETNVRILERV-NH2
modifications: N-terminus assumed
SMILES: CC[C@H](C)[C@H](N)C(=O)N[C@H](C(=O)N[C@@H](CC(C)C)C(=O)N[C@@H](CO)C(=O)N[C@@H](CC(C)C)C(=O)N[C@@H](CC(=O)O)C(=O)N[C@H](C(=O)N1CCC[C@H]1C(=O)N[C@H](C(=O)N[C@@H](CCCCN)C(=O)N[C@@H](CC(C)C)C(=O)N[C@@H](CCCCNC(=O)COCCOCCNC(=O)COCCOCCNC(=O)CC[C@H](NC(=O)CCCCCCCCCCCCCCCCC(=O)O)C(=O)O)C(=O)N[C@@H](CCC(N)=O)C(=O)N[C@H](C(=O)N[C@@H](CC(C)C)C(=O)N[C@@H](CC(C)C)C(=O)N[C@@H](CCC(=O)O)C(=O)N[C@@H](CCC(N)=O)C(=O)N[C@@H](C)C(=O)N[C@@H](CCCCN)C(=O)N[C@@H](CCC(N)=O)C(=O)N[C@@H](CCCCN)C(=O)NC(C)(C)C(=O)N[C@@H](CC(C)C)C(=O)N[C@@H](CCCNC(=N)N)C(=O)N[C@@H](C)C(=O)N[C@@H](CCC(N)=O)C(=O)N[C@@H](C)C(=O)N[C@@H](CCC(=O)O)C(=O)N[C@H](C(=O)N[C@@H](CC(N)=O)C(=O)N[C@H](C(=O)N[C@@H](CCCNC(=N)N)C(=O)N[C@H](C(=O)N[C@@H](CC(C)C)C(=O)N[C@@H](CCC(=O)O)C(=O)N[C@@H](CCCNC(=N)N)C(=O)N[C@H](C(N)=O)C(C)C)[C@@H](C)CC)C(C)C)[C@@H](C)O)[C@@H](C)CC)[C@@H](C)CC)C(C)C)C(C)C
B1 gave an EC50 [nM], 0% HSA of 0.52 nM.

Turning to IVLSLD[dV]PTKLK([AEEA-AEEA-γGlu-C18 diacid])KKLLKQERKR[Aib]EREKAEKAARILERV-NH2 [SEQ ID NO: 47], the EC50 [nM], 0% HSA was 6.85 nM.

B2: SEQ ID NO: 44 (peptide)
peptide: IVLSLDVPIKLK([AEEA-AEEA-γGlu-C18 diacid])QILLEQAKQKKERAQAETNVRILERV-NH2
modifications: N-terminus assumed
SMILES: CC[C@H](C)[C@H](N)C(=O)N[C@H](C(=O)N[C@@H](CC(C)C)C(=O)N[C@@H](CO)C(=O)N[C@@H](CC(C)C)C(=O)N[C@@H](CC(=O)O)C(=O)N[C@H](C(=O)N1CCC[C@H]1C(=O)N[C@H](C(=O)N[C@@H](CCCCN)C(=O)N[C@@H](CC(C)C)C(=O)N[C@@H](CCCCNC(=O)COCCOCCNC(=O)COCCOCCNC(=O)CC[C@H](NC(=O)CCCCCCCCCCCCCCCCC(=O)O)C(=O)O)C(=O)N[C@@H](CCC(N)=O)C(=O)N[C@H](C(=O)N[C@@H](CC(C)C)C(=O)N[C@@H](CC(C)C)C(=O)N[C@@H](CCC(=O)O)C(=O)N[C@@H](CCC(N)=O)C(=O)N[C@@H](C)C(=O)N[C@@H](CCCCN)C(=O)N[C@@H](CCC(N)=O)C(=O)N[C@@H](CCCCN)C(=O)N[C@@H](CCCCN)C(=O)N[C@@H](CCC(=O)O)C(=O)N[C@@H](CCCNC(=N)N)C(=O)N[C@@H](C)C(=O)N[C@@H](CCC(N)=O)C(=O)N[C@@H](C)C(=O)N[C@@H](CCC(=O)O)C(=O)N[C@H](C(=O)N[C@@H](CC(N)=O)C(=O)N[C@H](C(=O)N[C@@H](CCCNC(=N)N)C(=O)N[C@H](C(=O)N[C@@H](CC(C)C)C(=O)N[C@@H](CCC(=O)O)C(=O)N[C@@H](CCCNC(=N)N)C(=O)N[C@H](C(N)=O)C(C)C)[C@@H](C)CC)C(C)C)[C@@H](C)O)[C@@H](C)CC)[C@@H](C)CC)C(C)C)C(C)C
As to B2, the EC50 [nM], 0% HSA is 13.7 nM.

B3: SEQ ID NO: 2 (peptide)
peptide: IVLSLDVPIKLK([γGlu-Palmitoyl])KILLEQEKQEKEKQQAETNAQILAQV-NH2
modifications: N-terminus assumed
SMILES: CCCCCCCCCCCCCCCC(=O)N[C@@H](CCC(=O)NCCCC[C@H](NC(=O)[C@H](CC(C)C)NC(=O)[C@H](CCCCN)NC(=O)[C@@H](NC(=O)[C@@H]1CCCN1C(=O)[C@@H](NC(=O)[C@H](CC(=O)O)NC(=O)[C@H](CC(C)C)NC(=O)[C@H](CO)NC(=O)[C@H](CC(C)C)NC(=O)[C@@H](NC(=O)[C@@H](N)[C@@H](C)CC)C(C)C)C(C)C)[C@@H](C)CC)C(=O)N[C@@H](CCCCN)C(=O)N[C@H](C(=O)N[C@@H](CC(C)C)C(=O)N[C@@H](CC(C)C)C(=O)N[C@@H](CCC(=O)O)C(=O)N[C@@H](CCC(N)=O)C(=O)N[C@@H](CCC(=O)O)C(=O)N[C@@H](CCCCN)C(=O)N[C@@H](CCC(N)=O)C(=O)N[C@@H](CCC(=O)O)C(=O)N[C@@H](CCCCN)C(=O)N[C@@H](CCC(=O)O)C(=O)N[C@@H](CCCCN)C(=O)N[C@@H](CCC(N)=O)C(=O)N[C@@H](CCC(N)=O)C(=O)N[C@@H](C)C(=O)N[C@@H](CCC(=O)O)C(=O)N[C@H](C(=O)N[C@@H](CC(N)=O)C(=O)N[C@@H](C)C(=O)N[C@@H](CCC(N)=O)C(=O)N[C@H](C(=O)N[C@@H](CC(C)C)C(=O)N[C@@H](C)C(=O)N[C@@H](CCC(N)=O)C(=O)N[C@H](C(N)=O)C(C)C)[C@@H](C)CC)[C@@H](C)O)[C@@H](C)CC)C(=O)O
Consider B3, for which the EC50 [nM], 0% HSA was determined as 0.01 nM and the EC50 [nM], 0.1% HSA turned out to be 0.01 nM.

B4: SEQ ID NO: 45 (peptide)
peptide: IVLSLDVPIKLK([AEEA-AEEA-γGlu-C18 diacid])QILLEQAKQK[Aib]LKAQAETNVRILERV-NH2
modifications: N-terminus assumed
SMILES: CC[C@H](C)[C@H](N)C(=O)N[C@H](C(=O)N[C@@H](CC(C)C)C(=O)N[C@@H](CO)C(=O)N[C@@H](CC(C)C)C(=O)N[C@@H](CC(=O)O)C(=O)N[C@H](C(=O)N1CCC[C@H]1C(=O)N[C@H](C(=O)N[C@@H](CCCCN)C(=O)N[C@@H](CC(C)C)C(=O)N[C@@H](CCCCNC(=O)COCCOCCNC(=O)COCCOCCNC(=O)CC[C@H](NC(=O)CCCCCCCCCCCCCCCCC(=O)O)C(=O)O)C(=O)N[C@@H](CCC(N)=O)C(=O)N[C@H](C(=O)N[C@@H](CC(C)C)C(=O)N[C@@H](CC(C)C)C(=O)N[C@@H](CCC(=O)O)C(=O)N[C@@H](CCC(N)=O)C(=O)N[C@@H](C)C(=O)N[C@@H](CCCCN)C(=O)N[C@@H](CCC(N)=O)C(=O)N[C@@H](CCCCN)C(=O)NC(C)(C)C(=O)N[C@@H](CC(C)C)C(=O)N[C@@H](CCCCN)C(=O)N[C@@H](C)C(=O)N[C@@H](CCC(N)=O)C(=O)N[C@@H](C)C(=O)N[C@@H](CCC(=O)O)C(=O)N[C@H](C(=O)N[C@@H](CC(N)=O)C(=O)N[C@H](C(=O)N[C@@H](CCCNC(=N)N)C(=O)N[C@H](C(=O)N[C@@H](CC(C)C)C(=O)N[C@@H](CCC(=O)O)C(=O)N[C@@H](CCCNC(=N)N)C(=O)N[C@H](C(N)=O)C(C)C)[C@@H](C)CC)C(C)C)[C@@H](C)O)[C@@H](C)CC)[C@@H](C)CC)C(C)C)C(C)C
Molecule B4 came in with an EC50 [nM], 0% HSA of 3.77 nM.

B5: SEQ ID NO: 49 (peptide)
peptide: IVLSLDVPIKLK([AEEA-AEEA-γGlu-C18 diacid])QILLEQERQR[Aib]ERQQAETNVRILERV-NH2
modifications: N-terminus assumed
SMILES: CC[C@H](C)[C@H](N)C(=O)N[C@H](C(=O)N[C@@H](CC(C)C)C(=O)N[C@@H](CO)C(=O)N[C@@H](CC(C)C)C(=O)N[C@@H](CC(=O)O)C(=O)N[C@H](C(=O)N1CCC[C@H]1C(=O)N[C@H](C(=O)N[C@@H](CCCCN)C(=O)N[C@@H](CC(C)C)C(=O)N[C@@H](CCCCNC(=O)COCCOCCNC(=O)COCCOCCNC(=O)CC[C@H](NC(=O)CCCCCCCCCCCCCCCCC(=O)O)C(=O)O)C(=O)N[C@@H](CCC(N)=O)C(=O)N[C@H](C(=O)N[C@@H](CC(C)C)C(=O)N[C@@H](CC(C)C)C(=O)N[C@@H](CCC(=O)O)C(=O)N[C@@H](CCC(N)=O)C(=O)N[C@@H](CCC(=O)O)C(=O)N[C@@H](CCCNC(=N)N)C(=O)N[C@@H](CCC(N)=O)C(=O)N[C@@H](CCCNC(=N)N)C(=O)NC(C)(C)C(=O)N[C@@H](CCC(=O)O)C(=O)N[C@@H](CCCNC(=N)N)C(=O)N[C@@H](CCC(N)=O)C(=O)N[C@@H](CCC(N)=O)C(=O)N[C@@H](C)C(=O)N[C@@H](CCC(=O)O)C(=O)N[C@H](C(=O)N[C@@H](CC(N)=O)C(=O)N[C@H](C(=O)N[C@@H](CCCNC(=N)N)C(=O)N[C@H](C(=O)N[C@@H](CC(C)C)C(=O)N[C@@H](CCC(=O)O)C(=O)N[C@@H](CCCNC(=N)N)C(=O)N[C@H](C(N)=O)C(C)C)[C@@H](C)CC)C(C)C)[C@@H](C)O)[C@@H](C)CC)[C@@H](C)CC)C(C)C)C(C)C
For B5, the EC50 [nM], 0% HSA is 12.7 nM.

B6: SEQ ID NO: 48 (peptide)
peptide: IVLSLDVPIKLK([AEEA-AEEA-γGlu-C18 diacid])QILLEQERQR[Aib]ERQQAETNVQILAQV-NH2
modifications: N-terminus assumed
SMILES: CC[C@H](C)[C@H](N)C(=O)N[C@H](C(=O)N[C@@H](CC(C)C)C(=O)N[C@@H](CO)C(=O)N[C@@H](CC(C)C)C(=O)N[C@@H](CC(=O)O)C(=O)N[C@H](C(=O)N1CCC[C@H]1C(=O)N[C@H](C(=O)N[C@@H](CCCCN)C(=O)N[C@@H](CC(C)C)C(=O)N[C@@H](CCCCNC(=O)COCCOCCNC(=O)COCCOCCNC(=O)CC[C@H](NC(=O)CCCCCCCCCCCCCCCCC(=O)O)C(=O)O)C(=O)N[C@@H](CCC(N)=O)C(=O)N[C@H](C(=O)N[C@@H](CC(C)C)C(=O)N[C@@H](CC(C)C)C(=O)N[C@@H](CCC(=O)O)C(=O)N[C@@H](CCC(N)=O)C(=O)N[C@@H](CCC(=O)O)C(=O)N[C@@H](CCCNC(=N)N)C(=O)N[C@@H](CCC(N)=O)C(=O)N[C@@H](CCCNC(=N)N)C(=O)NC(C)(C)C(=O)N[C@@H](CCC(=O)O)C(=O)N[C@@H](CCCNC(=N)N)C(=O)N[C@@H](CCC(N)=O)C(=O)N[C@@H](CCC(N)=O)C(=O)N[C@@H](C)C(=O)N[C@@H](CCC(=O)O)C(=O)N[C@H](C(=O)N[C@@H](CC(N)=O)C(=O)N[C@H](C(=O)N[C@@H](CCC(N)=O)C(=O)N[C@H](C(=O)N[C@@H](CC(C)C)C(=O)N[C@@H](C)C(=O)N[C@@H](CCC(N)=O)C(=O)N[C@H](C(N)=O)C(C)C)[C@@H](C)CC)C(C)C)[C@@H](C)O)[C@@H](C)CC)[C@@H](C)CC)C(C)C)C(C)C
Turning to B6, the EC50 [nM], 0% HSA turned out to be 2.2 nM.
